Results: patent publication US20240209022A1, “NOVEL PEPTIDE HAVING ANTI-INFLAMMATORY AND TISSUE REGENERATIVE ACTIONS” (KOREA RESEARCH INSTITUTE OF BIOSCIENCE AND BIOTECHNOLOGY, priority 2020, published 2024)

Experiments:
[1] = test system: APP/PS1 Alzheimer's disease mice; assay: Novel object recognition test in APP/PS1 Alzheimer's disease mice; format: in vivo; settings: oral for 8 weeks; vs vehicle
Description: To 5-month-old APP/PS1 Alzheimer's disease male mice with amyloid deposition and cognitive and memory disorder in the brain, Amuc_1409 was orally administered to the mice by 5 μg daily 5 days a week for 8 weeks. PEP001 was dissolved in PBS buffer at a concentration of 2.4 μM, and then orally administered to the mice by 150 μL per animal 5 days a week for 8 weeks. To the control group (vehicle), PBS was orally administered in the same volume. In addition, normal mice (Non-Tg) not administered with the novel protein fragments were used as a control group.
In order to test the effect of improving cognitive function in APP/PS1 Alzheimer's disease mice administered with Amuc_1409 and PEP001, a novel object recognition test was performed. When the object seen 24 hours ago and a novel object were provided, the exploration time and the number of explorations for the novel object were measured to test cognition and memory.

C2C12 myoblasts = assay: Dexamethasone-induced atrophy gene expression in C2C12 myoblasts; format: cell-based; settings: 64 nM peptide together with dexamethasone (25 μM); RT-qPCR
Description: Myoblast C2C12 (myoblast) was dispensed into a 6 well plate, and then cultured in a DMEM medium containing 10% FBS and 1% antibiotics at 37° C. in a 10% CO2 incubator. Thereafter, in order to induce differentiation, the medium was replaced with a differentiation medium containing 2% horse serum, the C2C12 cells were treated with PEP004 and PEP005 at a concentration of 64 nM during the time for induction of differentiation, and formation of myotubes was observed.
After differentiation of myoblasts, the cells were treated with dexamethasone (25 μM), which causes muscle atrophy, and PEP004 and PEP005 simultaneously, and then RNA was extracted from the cells using Trizol. Reverse transcriptase was added to the obtained RNA and reacted to synthesize cDNA, and SYBR Green and primers were added to perform quantitative real-time PCR (RT-qPCR). Expression levels of Atrogin-1 and MuRF1, which are factors involved in muscle atrophy, were measured to determine whether atrophy of differentiated myoblasts was inhibited.

BTBR mice = assay: Social (sniffing) behavior in BTBR developmental disability model; format: in vivo; settings: oral, after 4 weeks of administration; vs vehicle
Description: In order to verify the efficacy of the peptides of the present invention on developmental disability, BTBR mice (BTBR T^+ltpr3^tf/J (BTBR)), a developmental disability model, were used as an experimental animal.
To 3-week-old male BTBR mice, Amuc_1409 was orally administered by 5 μg daily 5 days a week, and PBS (phosphate-buffered saline) was administered to the control group. PEP001, PEP002, PEP003, PEP004, and PEP005 were each dissolved in PBS buffer at a concentration of 2.4 μM and orally administered to the mice by 150 μL per animal at the same time once a day 5 days a week, and novel tetrapeptides PEP006, PEP007, PEP008, PEP009, and PEP010 and novel tripeptides PEP011 and PEP013 were each dissolved in PBS buffer at 0.2 μg/150 μL and orally administered to the mice by 150 μL per animal at the same time once a day 5 days a week. After 4 weeks of administration, behavioral evaluation was performed by observing the social behavior of the mice. The mice were allowed to freely consume sterilized feed and water in a breeding facility in a specific pathogen free environment where the temperature was maintained at 22° C. to 24° C., and were bred while maintaining a 12-hour day/night cycle.

[2] = test system: Human skin keratin cell line (HaCaT); assay: UVB photoaging gene expression in human skin keratinocytes; format: cell-based; settings: 30 nM; UVB 10 mJ/cm^2; vs control group irradiated with UVB
Description: An experiment was conducted to examine the skin regeneration ability of the peptides of the present invention. Human skin keratin cell line (HaCaT) was cultured in DMEM medium containing 10% fetal bovine serum (FBS) and 1% penicillin-streptomycin at 37° C. and 5% CO2. When the cell density reached 80%, the cells were dispensed into a 6-well plate at 4×10^5 cells per well and cultured for 24 hours. After 24 hours, the cells were treated with Amuc 1409 at a concentration of 30 nM for 1 hour, washed twice with PBS (phosphate buffered saline) after 1 hour, and irradiated with ultraviolet light at 10 mJ/cm^2 using an ultraviolet (UVB) irradiation device (CL-1000 UV crosslinker; UVP, USA). After UV irradiation, the medium was replaced with serum-free medium, and the cells were immediately treated with Amuc_1409 for 8 hours.
In relation to skin wrinkles due to skin aging, in order to examine the expression of MMP-1 and MMP-3 genes, which are collagenase, and Col1a1 and Col3a1 genes, which are collagen synthesis enzymes, RNA was isolated from the cells in each well using Trizol (Invitrogen, USA) and quantified by nanodrop, and then cDNA was synthesized using 1 μg of each RNA. A mixture obtained by adding MMP-1, MMP-3, Col1a1 and Col3a1 primers and fluorescent dye AccuPower® 2× GreenStar™ qPCR Master Mix (BIONEER, Korea) to the synthesized cDNA was subjected to real-time polymerase chain reaction in a real-time PCR machine.

Molecule	cognition and memory, novel object recognition test [1]	expression of Atrogin-1 (C2C12 myoblasts)	expression of MuRF1 (C2C12 myoblasts)	also measured
AVSSIKGAY (PEP001)	significantly improved			
GAY [PEP005]		significantly decreased	significantly decreased	
AVS (AVSSIKGAY) [PEP004]		significantly decreased	significantly decreased	
Amuc_1409: SEQ ID NO: 15, functional fragment obtained by eliminating the leader sequence from SEQ ID NO: 14; protein derived from Akkermansia muciniphila (protein, Amuc_1409_fragment, protein derived from Akkermansia muciniphila) IPESSVPAAAVSSIKGAYPNAGPIEWDSEMHGMERIYEAEFRINGFQFDVKIAPDGKIVRIKEEIAASSLPEAVRASVLKRYPGCRIKEAEKITEGELVRYKVEVADSRDDYDVLIAPDGNILHVDR	significantly improved			social behavior (sniffing time and frequency) (BTBR mice): significantly increased or tended to increase; expression of Col1a1 gene [2]: significantly increased; expression of Col3a1 gene [2]: significantly increased; expression of MMP-1 gene [2]: significantly decreased; expression of MMP-3 gene [2]: significantly decreased
